This assay deals with IL-17 (used on human synovial fibroblasts, Example 9). Kind of assay: cell-based or functional assay.

For the substance MAB421 (antibody), the IL-6 production by human RA fibroblasts stimulated with IL-17 (10 ng/ml) and TNF-α (100 U/ml); 3662.05 µg/ml without antibody; antibody at 10 µg/ml was 2320 µg/mL.

Values taken from patent US20260035452A1, “NOVEL INTERLEUKIN-17A (IL-17A)-DERIVED PEPTIDE AND NEUTRALIZING ANTIBODY (AB17-IPL-1)” (THE UNIVERSITY OF BIRMINGHAM, priority 2022, published 2026).
